Reference: patent US12692294B2, “Engineered NRG-1 variants with improved selectivity toward ErbB4 but not against ErbB3” (Amgen Inc., priority 2021, dated 2026)

Columns and labels:
ErbB4 = target: T1, ErbB4 (Rattus norvegicus, UniProt Q62956); assay: In vitro phosphorylation of Akt in neonatal rat cardiomyocytes; type: cell-based; conditions: for EC50: Akt (Serine 473) phosphorylation, neonatal rat cardiomyocytes, 15 minutes treatment, read-out: Cardiomyocyte (CM) (ErbB4) Avg EC50; for Selectivity SC/CM: ratio of EC50s Schwann cells/cardiomyocytes; for CM % Agonism AVG: top value of the Akt phosphorylation data points in cardiomyocytes, wild-type control 100
T1 construct: forming the ErbB2/ErbB4 complex in cardiomyocytes and the ErbB2/ErbB3 complex in Schwann cells; endogenous in cells; host or cells: primary neonatal rat cardiomyocytes (Sprague Dawley pups, 0 to 4 days old)
Protocol: (§1) In Vitro Phosphorylation of Akt in Neonatal Rat Cardiomyocytes and Rat Schwann Cells by Neuregulin Variants
(§2) Specificity of neuregulin variants towards cardiomyocytes (ErbB4) versus Schwann cells (ErbB3) was tested by measuring Akt activity generated by formation of the ErbB2/ErbB4 and ErbB2/ErbB3 complexes. Upon activation by neuregulin, the ErbB4 and ErbB3 receptors dimerize preferentially with the ErbB2 co-receptor, forming the ErbB2/ErbB4 complex in cardiomyocytes and the ErbB2/ErbB3 complex in Schwann cells, both of which signal through the Akt pathway. Neonatal rat cardiomyocytes were isolated from hearts of Sprague Dawley rat pups at 0 to 4 days old according to manufacturer's protocol using the Neomyt kit and plated on Surecoat plates in NS media containing serum (all from Cellultron Life Technologies, Baltimore, MD). Rat Schwann cells were plated in Poly-D-Lysine coated plates with Dulbecco's modified Eagle's media (DMEM) supplemented with fetal bovine serum (Thermo Fisher) and forskolin (Millipore Sigma).
(§3) After a 24-hour incubation in a humidified incubator maintained at 37° C. and 5% CO2, cardiomyocytes and Schwann cells were washed with serum free media and incubated an additional 16 hours in DMEM supplemented with bovine serum albumin (Sigma). Both cell lines were then treated with titrations of the neuregulin variant molecules for 15 minutes, upon which cells were lysed in lysis buffer (Meso Scale Discovery (MSD)). For detection of Akt phosphorylation, lysates were added to the Multi-Spot 96-Well 4-Spot Phospho (Serine 473)/Total Akt plates (MSD), incubated according to the manufacturer's protocol and read in the SECTOR Imager 6000 (MSD). For both cell assays, the percent phosphorylation of Akt was calculated by multiplying the phospho Akt signal by 2, then dividing by the phospho Akt signal added to the total Akt signal and then multiplying by 100. The phosphorylation of Akt data points were fitted using a log (agonist) versus response, variable slope (4 parameters) analysis in GraphPad Prism to generate EC50 curves. The CM % agonism reflect the top value of the data points.

ErbB3 = target: T2, ErbB3 (Rattus norvegicus, UniProt Q62799); assay: In vitro phosphorylation of Akt in rat Schwann cells; type: cell-based; conditions: Akt (Serine 473) phosphorylation, 15 minutes treatment
T2 construct: forming the ErbB2/ErbB4 complex in cardiomyocytes and the ErbB2/ErbB3 complex in Schwann cells; endogenous in cells; host or cells: rat Schwann cells
Protocol: as §1, §2, §3

T1 sequence (Q62956 26-1308): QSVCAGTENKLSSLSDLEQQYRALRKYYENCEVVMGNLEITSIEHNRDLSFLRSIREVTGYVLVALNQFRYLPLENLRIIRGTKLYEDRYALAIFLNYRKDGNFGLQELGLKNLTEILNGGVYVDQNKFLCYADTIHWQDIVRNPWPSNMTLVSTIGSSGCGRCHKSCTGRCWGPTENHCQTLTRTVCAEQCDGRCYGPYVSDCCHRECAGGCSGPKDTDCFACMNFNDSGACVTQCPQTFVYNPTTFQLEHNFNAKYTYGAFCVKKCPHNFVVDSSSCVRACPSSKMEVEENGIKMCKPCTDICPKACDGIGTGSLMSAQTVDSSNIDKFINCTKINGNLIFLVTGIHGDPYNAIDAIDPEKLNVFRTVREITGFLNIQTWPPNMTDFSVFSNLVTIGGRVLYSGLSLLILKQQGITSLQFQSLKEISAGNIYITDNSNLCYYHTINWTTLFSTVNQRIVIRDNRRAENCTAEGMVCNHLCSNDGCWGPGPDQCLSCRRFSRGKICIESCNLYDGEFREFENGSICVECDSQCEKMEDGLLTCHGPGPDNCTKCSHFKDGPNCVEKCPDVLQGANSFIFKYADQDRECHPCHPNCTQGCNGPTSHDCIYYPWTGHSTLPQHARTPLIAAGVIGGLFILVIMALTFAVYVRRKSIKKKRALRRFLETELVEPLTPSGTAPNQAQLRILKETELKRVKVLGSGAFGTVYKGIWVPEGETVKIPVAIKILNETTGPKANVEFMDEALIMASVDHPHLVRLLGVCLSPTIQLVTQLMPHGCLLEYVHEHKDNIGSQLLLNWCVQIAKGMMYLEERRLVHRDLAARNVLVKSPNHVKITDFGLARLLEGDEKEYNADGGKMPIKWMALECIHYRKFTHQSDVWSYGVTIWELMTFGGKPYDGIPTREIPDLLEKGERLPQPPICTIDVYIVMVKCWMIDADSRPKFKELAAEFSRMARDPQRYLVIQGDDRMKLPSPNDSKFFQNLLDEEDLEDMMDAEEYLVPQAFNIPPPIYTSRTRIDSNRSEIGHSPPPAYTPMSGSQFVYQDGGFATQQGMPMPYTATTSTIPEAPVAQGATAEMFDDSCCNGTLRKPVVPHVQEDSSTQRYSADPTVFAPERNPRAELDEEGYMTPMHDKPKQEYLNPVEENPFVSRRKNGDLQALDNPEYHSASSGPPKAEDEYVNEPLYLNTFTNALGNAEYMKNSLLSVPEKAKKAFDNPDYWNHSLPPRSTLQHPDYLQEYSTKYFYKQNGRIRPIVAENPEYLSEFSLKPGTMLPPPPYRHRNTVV
T1 sequence (P06494 23-1257 partner): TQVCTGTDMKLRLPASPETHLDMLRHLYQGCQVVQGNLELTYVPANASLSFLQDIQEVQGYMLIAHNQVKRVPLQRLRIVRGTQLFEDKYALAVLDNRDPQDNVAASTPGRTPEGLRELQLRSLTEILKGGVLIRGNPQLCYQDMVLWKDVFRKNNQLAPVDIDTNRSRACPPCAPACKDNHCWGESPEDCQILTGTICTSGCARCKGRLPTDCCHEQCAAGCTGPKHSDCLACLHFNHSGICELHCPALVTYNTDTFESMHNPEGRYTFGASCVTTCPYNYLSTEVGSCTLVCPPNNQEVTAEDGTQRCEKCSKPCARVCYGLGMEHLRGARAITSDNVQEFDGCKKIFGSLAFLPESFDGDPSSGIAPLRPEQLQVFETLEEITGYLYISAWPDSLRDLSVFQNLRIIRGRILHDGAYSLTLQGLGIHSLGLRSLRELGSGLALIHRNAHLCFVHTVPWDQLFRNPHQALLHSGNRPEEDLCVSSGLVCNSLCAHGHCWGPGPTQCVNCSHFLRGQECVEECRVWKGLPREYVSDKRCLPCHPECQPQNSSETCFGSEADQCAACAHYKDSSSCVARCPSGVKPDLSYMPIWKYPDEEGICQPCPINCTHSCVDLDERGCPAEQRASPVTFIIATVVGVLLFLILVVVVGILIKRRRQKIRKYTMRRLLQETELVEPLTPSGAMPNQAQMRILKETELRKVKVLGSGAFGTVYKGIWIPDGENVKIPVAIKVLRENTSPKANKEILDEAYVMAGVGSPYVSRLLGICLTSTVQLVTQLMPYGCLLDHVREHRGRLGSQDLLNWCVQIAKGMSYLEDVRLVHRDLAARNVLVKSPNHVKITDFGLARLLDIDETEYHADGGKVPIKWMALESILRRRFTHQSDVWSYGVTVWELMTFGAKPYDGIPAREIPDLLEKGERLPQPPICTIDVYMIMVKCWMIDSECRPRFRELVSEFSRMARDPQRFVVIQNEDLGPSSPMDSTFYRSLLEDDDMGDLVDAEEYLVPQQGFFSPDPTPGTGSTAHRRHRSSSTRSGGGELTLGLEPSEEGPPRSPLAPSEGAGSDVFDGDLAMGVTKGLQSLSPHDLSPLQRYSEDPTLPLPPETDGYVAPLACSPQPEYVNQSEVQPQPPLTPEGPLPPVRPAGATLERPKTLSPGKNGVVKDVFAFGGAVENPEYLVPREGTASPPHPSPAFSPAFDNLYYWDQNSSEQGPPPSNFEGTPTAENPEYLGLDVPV
T2 sequence (Q62799 20-1339): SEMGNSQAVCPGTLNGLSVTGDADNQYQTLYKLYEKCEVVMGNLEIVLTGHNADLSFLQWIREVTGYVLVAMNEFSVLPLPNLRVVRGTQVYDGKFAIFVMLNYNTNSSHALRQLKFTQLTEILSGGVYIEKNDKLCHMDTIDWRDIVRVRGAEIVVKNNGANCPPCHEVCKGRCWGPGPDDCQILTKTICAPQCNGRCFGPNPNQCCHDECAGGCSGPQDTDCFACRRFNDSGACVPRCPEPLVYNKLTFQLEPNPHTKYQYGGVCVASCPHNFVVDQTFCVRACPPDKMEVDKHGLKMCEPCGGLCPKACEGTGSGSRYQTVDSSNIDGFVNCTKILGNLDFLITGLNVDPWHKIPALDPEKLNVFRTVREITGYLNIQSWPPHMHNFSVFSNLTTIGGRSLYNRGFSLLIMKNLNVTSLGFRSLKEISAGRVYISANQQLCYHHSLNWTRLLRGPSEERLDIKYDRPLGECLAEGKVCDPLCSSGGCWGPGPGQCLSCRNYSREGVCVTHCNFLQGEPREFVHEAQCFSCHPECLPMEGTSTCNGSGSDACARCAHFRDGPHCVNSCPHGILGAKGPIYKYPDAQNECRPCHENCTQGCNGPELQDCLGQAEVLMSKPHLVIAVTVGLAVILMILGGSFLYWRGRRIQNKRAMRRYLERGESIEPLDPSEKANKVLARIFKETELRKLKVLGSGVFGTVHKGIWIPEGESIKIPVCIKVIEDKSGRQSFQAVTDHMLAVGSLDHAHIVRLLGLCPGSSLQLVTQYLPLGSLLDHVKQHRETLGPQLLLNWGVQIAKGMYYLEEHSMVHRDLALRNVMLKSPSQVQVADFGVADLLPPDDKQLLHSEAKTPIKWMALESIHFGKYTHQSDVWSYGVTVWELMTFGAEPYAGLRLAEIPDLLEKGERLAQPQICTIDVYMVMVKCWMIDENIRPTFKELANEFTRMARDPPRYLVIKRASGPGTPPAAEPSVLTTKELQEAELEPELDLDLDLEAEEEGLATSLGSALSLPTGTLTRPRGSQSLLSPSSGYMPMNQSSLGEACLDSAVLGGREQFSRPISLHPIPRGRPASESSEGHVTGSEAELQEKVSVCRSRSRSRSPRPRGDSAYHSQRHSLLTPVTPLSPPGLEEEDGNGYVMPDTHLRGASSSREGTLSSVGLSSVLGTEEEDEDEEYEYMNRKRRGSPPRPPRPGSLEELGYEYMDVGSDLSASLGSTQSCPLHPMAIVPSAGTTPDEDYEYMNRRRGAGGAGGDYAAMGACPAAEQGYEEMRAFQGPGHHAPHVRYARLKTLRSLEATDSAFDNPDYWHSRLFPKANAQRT
T2 sequence (P06494 23-1257 partner): as the sequence (P06494 23-1257 partner) above

EC50 (ErbB4)	Selectivity SC/CM (ErbB4)	CM % Agonism AVG (ErbB4)	Schwann cells (SC) (ErbB3) Avg EC50 (M) (ErbB3)	Molecule
6.4 nM	>10000	62.7%	inactive	:huFcSEFL2(desK)vl31(+):G4SG4:huNRG1(S177-F229)(NRGE1C): N-terminal Fc fusion of NRG1 variant SEQ ID NO:117 (protein, huFcSEFL2(desK)v131(+)G4SG4huNRG1(S177-F229) (NRGE1C)) DKTHTCPPCPAPELLGGPSVFLFPPKPKDTLMISRTPEVTCVVVDVSHEDPEVKFNWYVDGVEVHNAKTKPCEEQYGSTYRCVSVLTVLHQDWLNGKEYKCKVSNKALPAPIEKTISKAKGQPREPQVYTLPPSREKMTKNQVSLTCLVKGFYPSDIAVEWESNGQPENNYKTTPPVLKSDGSFFLYSKLTVDKSRWQQGNVFSCSVMHEALHNHYTQKSLSLSPGGGGGSGGGGSHLVKCGEKHKSFCVNGGECFMIEGPSNPSRYLCKCPNEFTGDRCQEDFMASFDKTHTCPPCPAPELLGGPSVFLFPPKPKDTLMISRTPEVTCVVVDVSHEDPEVKFNWYVDGVEVHNAKTKPCEEQYGSTYRCVSVLTVLHQDWLNGKEYKCKVSNKALPAPIEKTISKAKGQPREPQVYTLPPSREEMTENQVSLTCLVEGFYPSDIAVEWESNGQPENNYETTPPVLDSDGSFFLYSDLTVDKSRWQQGNVFSCSVMHEALHNHYTQKSLSLSPGK
4.3 nM	>10000	72.3%	inactive	:huFcSEFL2(desK)vl31(+):G4SG4:huNRG1(S177-F229)(NRGE1D): N-terminal Fc fusion of NRG1 variant SEQ ID NO:126 (protein, huFcSEFL2(desK)v131(+)G4SG4huNRG1(S177-F229) (NRGE1D)) DKTHTCPPCPAPELLGGPSVFLFPPKPKDTLMISRTPEVTCVVVDVSHEDPEVKFNWYVDGVEVHNAKTKPCEEQYGSTYRCVSVLTVLHQDWLNGKEYKCKVSNKALPAPIEKTISKAKGQPREPQVYTLPPSREKMTKNQVSLTCLVKGFYPSDIAVEWESNGQPENNYKTTPPVLKSDGSFFLYSKLTVDKSRWQQGNVFSCSVMHEALHNHYTQKSLSLSPGGGGGSGGGGSHLVKCGESHKSFCVNGGECYMVEGSSIPSRYLCKCPNEFTGDRCQEDFMASFDKTHTCPPCPAPELLGGPSVFLFPPKPKDTLMISRTPEVTCVVVDVSHEDPEVKFNWYVDGVEVHNAKTKPCEEQYGSTYRCVSVLTVLHQDWLNGKEYKCKVSNKALPAPIEKTISKAKGQPREPQVYTLPPSREEMTENQVSLTCLVEGFYPSDIAVEWESNGQPENNYETTPPVLDSDGSFFLYSDLTVDKSRWQQGNVFSCSVMHEALHNHYTQKSLSLSPGK
